Each block holds one binder with its values, some of them ahead of it.
Tests used:
IL-6R-Fc 항원 [1] = molecular target: T1, IL-6R-Fc 항원 (human, UniProt P08887 20-365, limits assumed); assay: ELISA titration on coated IL-6R; fit R2 0.8
T1 construct: domain: IL-6R full domain; Made in-house as IL-6R-Fc; also called IL-6R full; IL-6R full domain인 단백질; not shown: Fc part (vector pYK 604)
T1 sequence (looked up): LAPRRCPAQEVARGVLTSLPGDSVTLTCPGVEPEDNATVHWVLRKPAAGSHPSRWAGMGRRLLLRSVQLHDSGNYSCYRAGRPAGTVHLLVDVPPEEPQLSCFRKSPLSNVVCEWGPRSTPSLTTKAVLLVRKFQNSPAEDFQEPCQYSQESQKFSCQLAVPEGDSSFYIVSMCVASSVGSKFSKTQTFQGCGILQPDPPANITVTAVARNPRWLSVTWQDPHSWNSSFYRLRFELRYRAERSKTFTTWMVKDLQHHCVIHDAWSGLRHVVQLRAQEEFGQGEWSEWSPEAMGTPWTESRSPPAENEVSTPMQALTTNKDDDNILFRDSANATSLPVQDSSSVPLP

IL-6R-Fc 항원 [2] = molecular target: T1, IL-6R-Fc 항원; assay: ELISA titration on coated IL-6R (repeats the 3rd table)
IL-6R-Fc 항원 [3] = molecular target: T1, IL-6R-Fc 항원; assay: ELISA; IL-6R coated 100 ng/well; IgG at 25 nM; anti-Fab-HRP
IL-6R-Fc 항원 [4] = molecular target: T1, IL-6R-Fc 항원; assay: ELISA; IL-6R coated 100 ng/well; IgG at 50 nM; anti-Fab-HRP
IL-6R-Fc 항원 [5] = molecular target: T1, IL-6R-Fc 항원; assay: ELISA; IL-6R coated 100 ng/well; IgG at 12.5 nM; anti-Fab-HRP
IL-6R-Fc 항원 [6] = molecular target: T1, IL-6R-Fc 항원; assay: ELISA; IL-6R coated 100 ng/well; IgG at 6.25 nM; anti-Fab-HRP
IL-6R-Fc 항원 [7] = molecular target: T1, IL-6R-Fc 항원; assay: ELISA; IL-6R coated 100 ng/well; IgG at 3.125 nM; anti-Fab-HRP
IL-6R-Fc 항원 [8] = molecular target: T1, IL-6R-Fc 항원; assay: ELISA; IL-6R coated 100 ng/well; IgG at 1.5625 nM; anti-Fab-HRP
IL-6R-Fc 항원 [9] = molecular target: T1, IL-6R-Fc 항원; assay: ELISA; IL-6R coated 100 ng/well; IgG at 0.02441 nM; anti-Fab-HRP
IL-6R-Fc 항원 [10] = molecular target: T1, IL-6R-Fc 항원; assay: ELISA; IL-6R coated 100 ng/well; IgG at 0.04883 nM; anti-Fab-HRP
IL-6R-Fc 항원 [11] = molecular target: T1, IL-6R-Fc 항원; assay: ELISA; IL-6R coated 100 ng/well; IgG at 0.09766 nM; anti-Fab-HRP
IL-6R-Fc 항원 [12] = molecular target: T1, IL-6R-Fc 항원; assay: ELISA; IL-6R coated 100 ng/well; IgG at 0.19531 nM; anti-Fab-HRP
IL-6R-Fc 항원 [13] = molecular target: T1, IL-6R-Fc 항원; assay: ELISA; IL-6R coated 100 ng/well; IgG at 0.39063 nM; anti-Fab-HRP
IL-6R-Fc 항원 [14] = molecular target: T1, IL-6R-Fc 항원; assay: ELISA; IL-6R coated 100 ng/well; IgG at 0.78125 nM; anti-Fab-HRP
IL-6R-Fc 항원 [15] = molecular target: T1, IL-6R-Fc 항원; assay: ELISA titration on coated IL-6R; fit R2 0.75
a-Myc = molecular target: T2, a-Myc; assay: mono phage ELISA; a-Myc coated 100 ng/well; anti-M13-HRP
T2 construct: Coated at 100 ng/well in the phage ELISAs

IL-6R-Fc 항원 [16] = molecular target: T1, IL-6R-Fc 항원; assay: ELISA titration on coated IL-6R; fit R2 0.98
IL-6R-Fc 항원 [17] = molecular target: T1, IL-6R-Fc 항원; assay: assay on IL-6R not described for the bispecific protein
IL-6R-Fc 항원 [18] = molecular target: T1, IL-6R-Fc 항원; assay: ELISA titration on coated IL-6R; fit R2 0.93
TNF-α = molecular target: T3, TNF-α (UniProt P01375 77-233); assay: ELISA; TNF-α coated 100 ng/well; protein from 100 nM in 1/4 steps; anti-Human Fc-HRP
T3 construct: Coated at 100 ng/well; also called TNF-a; TNF-α 리간드
T3 sequence (P01375 77-233 limits assumed): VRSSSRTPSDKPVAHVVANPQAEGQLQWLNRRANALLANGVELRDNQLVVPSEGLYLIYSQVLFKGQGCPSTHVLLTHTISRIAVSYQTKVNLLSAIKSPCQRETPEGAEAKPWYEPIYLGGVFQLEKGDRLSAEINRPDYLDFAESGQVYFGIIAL

OD 490 nm (a-myc) (a-Myc): 0.113 OD490
B3: 모노 파아지 클론 B10 (scFv, V domains shown)
VH: QVQLVESGGGLVQPGGSLRLSCAASGFIFDDYAMFWVRQVPGKGLEWVAGINWNGNGIGYGDSVRGRFIISRDNARNSLDLQMNSLRAEDTAVYYCARPSLYGGNSEFDLWGQGTLVTVSS
VL: SQLVLTQPPSVSGAPGQTVTISCTGPTIGAGYDVHWYQQLPGAAPKLLIYGNLNRPSGVPDRFSGSKSGTSASLAITDLQAEDEADYYCHTYDSSLSGSWVFGGGTKLTVL
notes: also called 6B10

OD 490 nm (a-myc) (a-Myc): 0.303 OD490
B4: 모노 파아지 클론 D2 (scFv, V domains shown)
VH: QVQLVESGAEVKKPGSSVKVSCKGSGDTFPNYAINWVRQAPGQGPEWMGRIIPMLGTSDYAEKFQGRVTITADKSTNTAYMGLNSLRSEDTAVYYCVKGPRYYGTDSYYLEKWGQGTMVTVSS
VL: B3 VL
notes: also called D02

OD 490 nm (a-myc) (a-Myc): 0.287 OD490
B6: 모노 파아지 클론 F2 (scFv, V domains shown)
VH: QVQLVESGAEVKKPGASVKVSCKASGYTFTNYYMHWVRQAPGQGLEWMGIINPSGGNTGYAQKFQGRVTMTRDMSTSTAYMELSSLRSEDTAVYYCARGLPWGENGLDVWGQGTTVTVSS
VL: SQLVLTQPSSVSGAPGQTVTISCTGSSSNIGAGYDVHWYQQLPGTAPKVLIYGDSDRPSGVPDRFSGSKSATSASLAITGLQAEDEADYYCQSYDSSLSAYVFGTGTKVTVL
notes: also called F02

Kd (IL-6R-Fc 항원 [17]): 2.3 nM
B7: A7/TNFR2 (bispecific antibody)
heavy: not shown
light: DVHSQLVLTQPPSVSGAPGQRVTISCTGTNSNIGAGYDVHWYQQVPGTTPKLLIYGNTNRPSGVPDRFSGSKSGTSASLAITGLQAEDGGDYYCQSFDSSLTGSVFGTGTKVTVL
notes: also called Anti-IL-6R/TNFR2; Dual

Kd (IL-6R-Fc 항원 [17]): 4.3 nM
Kd (TNF-α): 0.72 nM
B10: B10/TNFR2 (bispecific antibody)
heavy: not shown
light: DVHSQLVLTQPPSVSGAPGQTVTISCTGPTIGAGYDVHWYQQLPGAAPKLLIYGNLNRPSGVPDRFSGSKSGTSASLAITDLQAEDEADYYCHTYDSSLSGSWVFGGGTKLTVL
notes: also called Anti-IL-6R/TNFR2

Continued, binder first:

B1: 항 IL-6R 단클론 항체 D2 (antibody, V domains shown)
VH: B4 VH
VL: B3 VL
Kd (IL-6R-Fc 항원 [1]): 7.5 nM
Kd (IL-6R-Fc 항원 [2]): 7.5 nM
OD 490 nm (IL-6R-Fc 항원 [3]): 1.94 OD490
OD 490 nm (IL-6R-Fc 항원 [4]): 2.38 OD490
OD 490 nm (IL-6R-Fc 항원 [5]): 1.47 OD490
OD 490 nm (IL-6R-Fc 항원 [6]): 0.981 OD490
OD 490 nm (IL-6R-Fc 항원 [7]): 0.719 OD490
OD 490 nm (IL-6R-Fc 항원 [8]): 0.584 OD490
OD 490 nm (IL-6R-Fc 항원 [9]): 0.449 OD490
OD 490 nm (IL-6R-Fc 항원 [10]): 0.451 OD490
OD 490 nm (IL-6R-Fc 항원 [11]): 0.45 OD490
OD 490 nm (IL-6R-Fc 항원 [12]): 0.469 OD490
OD 490 nm (IL-6R-Fc 항원 [13]): 0.473 OD490
OD 490 nm (IL-6R-Fc 항원 [14]): 0.479 OD490

B2: 항 IL-6R 단클론 항체 B10 (antibody, V domains shown)
VH: B3 VH
VL: B3 VL
Kd (IL-6R-Fc 항원 [15]): 4.3 nM
Kd (IL-6R-Fc 항원 [2]): 4.3 nM
OD 490 nm (IL-6R-Fc 항원 [3]): 1.78 OD490
OD 490 nm (IL-6R-Fc 항원 [4]): 2.09 OD490
OD 490 nm (IL-6R-Fc 항원 [5]): 1.39 OD490
OD 490 nm (IL-6R-Fc 항원 [6]): 1.04 OD490
OD 490 nm (IL-6R-Fc 항원 [7]): 0.761 OD490
OD 490 nm (IL-6R-Fc 항원 [8]): 0.607 OD490
OD 490 nm (IL-6R-Fc 항원 [9]): 0.468 OD490
OD 490 nm (IL-6R-Fc 항원 [10]): 0.451 OD490
OD 490 nm (IL-6R-Fc 항원 [11]): 0.462 OD490
OD 490 nm (IL-6R-Fc 항원 [12]): 0.429 OD490
OD 490 nm (IL-6R-Fc 항원 [13]): 0.476 OD490
OD 490 nm (IL-6R-Fc 항원 [14]): 0.5 OD490

B5: 항 IL-6R 단클론 항체 F2 (antibody, V domains shown)
VH: B6 VH
VL: B6 VL
Kd (IL-6R-Fc 항원 [16]): 0.35 nM
Kd (IL-6R-Fc 항원 [2]): 0.35 nM
OD 490 nm (IL-6R-Fc 항원 [3]): 2.89 OD490
OD 490 nm (IL-6R-Fc 항원 [4]): 2.99 OD490
OD 490 nm (IL-6R-Fc 항원 [5]): 2.92 OD490
OD 490 nm (IL-6R-Fc 항원 [6]): 2.71 OD490
OD 490 nm (IL-6R-Fc 항원 [7]): 2.72 OD490
OD 490 nm (IL-6R-Fc 항원 [8]): 2.43 OD490
OD 490 nm (IL-6R-Fc 항원 [9]): 0.535 OD490
OD 490 nm (IL-6R-Fc 항원 [10]): 0.584 OD490
OD 490 nm (IL-6R-Fc 항원 [11]): 0.743 OD490
OD 490 nm (IL-6R-Fc 항원 [12]): 1.01 OD490
OD 490 nm (IL-6R-Fc 항원 [13]): 1.41 OD490
OD 490 nm (IL-6R-Fc 항원 [14]): 1.9 OD490

B8: 항 IL-6R 단클론 항체 A7 (antibody, V domains shown)
VH: QMQLVESGGGLVQPGTSLRLSCAASGFKFEDYAMHWVRQAPGKGLEWVSGVSWNSGTIAYVDSVKGRFTISRDNAKNSLYLQMNSLRAEDTAVYYCARDFTYFYESSGYYAFDLWGQGTMVTVSS
VL: SQLVLTQPPSVSGAPGQRVTISCTGTNSNIGAGYDVHWYQQVPGTTPKLLIYGNTNRPSGVPDRFSGSKSGTSASLAITGLQAEDGGDYYCQSFDSSLTGSVFGTGTKVTVL
Kd (IL-6R-Fc 항원 [18]): 2.3 nM
Kd (IL-6R-Fc 항원 [2]): 2.3 nM
OD 490 nm (IL-6R-Fc 항원 [3]): 2.84 OD490
OD 490 nm (IL-6R-Fc 항원 [4]): 3.1 OD490
OD 490 nm (IL-6R-Fc 항원 [5]): 2.58 OD490
OD 490 nm (IL-6R-Fc 항원 [6]): 2.13 OD490
OD 490 nm (IL-6R-Fc 항원 [7]): 1.64 OD490
OD 490 nm (IL-6R-Fc 항원 [8]): 1.17 OD490
OD 490 nm (IL-6R-Fc 항원 [9]): 0.514 OD490
OD 490 nm (IL-6R-Fc 항원 [10]): 0.498 OD490
OD 490 nm (IL-6R-Fc 항원 [11]): 0.497 OD490
OD 490 nm (IL-6R-Fc 항원 [12]): 0.546 OD490
OD 490 nm (IL-6R-Fc 항원 [13]): 0.618 OD490
OD 490 nm (IL-6R-Fc 항원 [14]): 0.782 OD490

B9: 모노 파아지 클론 A7 (scFv, V domains shown)
VH: B8 VH
VL: B8 VL
notes: also called A07
OD 490 nm (a-myc) (a-Myc): 0.0797 OD490
